pKd: −log10 of the molar value.

In PMC7350312 one finds Kd data, which are given here for one substance.

The assay deals with HIV-1 CRF07_BC gp120 recombinant protein (HIV-1 CRF07_BC). Kind of assay: SPR; format not shown (protocol in the supplement). (In general: SPR reads the build-up and loss of mass on a sensor chip optically.)

One may read the pKd as the Kd on a negative log10 scale, so that one unit is a factor of ten. For “recombinant human galectin-3 (from UniProt P17931 1-250)”, the pKd was 8.15.
